How the values were obtained:
SEC = target: the molecule itself; test: SEC
Mce3R [1] = target: T1, Mce3R (Mycobacterium tuberculosis H37Rv, UniProt P95251 1-406); test: EMSA; 10 nM DNA, 0-128 nM protein; details: protein: recombinant; tags: MBP-His6 N-terminal, removed with TEV; chain copies: 2; label: 5'-Cy3 (forward strand); blunt
T1 sequence: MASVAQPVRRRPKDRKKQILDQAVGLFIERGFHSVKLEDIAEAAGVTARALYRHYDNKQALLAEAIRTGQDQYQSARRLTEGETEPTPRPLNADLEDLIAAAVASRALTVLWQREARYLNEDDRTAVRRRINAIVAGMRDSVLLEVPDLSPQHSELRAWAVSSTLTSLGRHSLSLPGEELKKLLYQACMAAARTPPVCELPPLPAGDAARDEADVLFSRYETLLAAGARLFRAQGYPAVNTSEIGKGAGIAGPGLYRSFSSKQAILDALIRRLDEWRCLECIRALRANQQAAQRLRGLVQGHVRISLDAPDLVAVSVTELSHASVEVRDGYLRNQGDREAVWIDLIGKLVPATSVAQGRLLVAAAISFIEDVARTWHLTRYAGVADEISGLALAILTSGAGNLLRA

Mce3R [2] = target: T1, Mce3R; test: EMSA; details: protein: recombinant; tags: MBP-His6 N-terminal, removed with TEV; chain copies: 2; label: 5'-Cy3; blunt
Mce3R [3] = target: T1, Mce3R; test: EMSA; up to 128 nM Mce3R, 1 ug poly(dI-dC); details: protein: recombinant; tags: MBP-His6 N-terminal, removed with TEV; chain copies: 2; label: 5'-Cy3 (forward strand); blunt

B1: Mce3R (Rv1963c), full-length TetR-like repressor of Mycobacterium tuberculosis (natural protein)
chain: T1 sequence
notes: Mce3R (Rv1963c), Mycobacterium tuberculosis H37Rv, full length; calculated MW 44.3 kDa; also called M1M2 TFR; wild-type Mce3R; not shown: MBP, N-terminal, cleaved; His6, N-terminal, cleaved
B1 was tested, and the “stoichiometry N” value (SEC) was 2.

B2: Probe A (dsDNA)
DNA 1: GCCCCGCGCTATAGGATACTAGCAAGATACATCATAGCCAATATATGCCAGTTTGCATTGCTATTTACCGATCAGTTGTCCAAGCAATCGCGTATTGGCTATGGACATCAGCGGTTCTGCCGC
DNA 2: GCGGCAGAACCGCTGATGTCCATAGCCAATACGCGATTGCTTGGACAACTGATCGGTAAATAGCAATGCAAACTGGCATATATTGGCTATGATGTATCTTGCTAGTATCCTATAGCGCGGGGC
With B2 the Kd (Mce3R [1]) was 2.4 ± 0.7 nM.

B3: Probe C (dsDNA)
DNA 1: TAGCCAATATATGCCAGTTTGCATTGCTATTTACCGATCAGTTGTCCAAGCAATCGCGTATTGGCTATGGACATCAGCGGTTCTGCCGC
DNA 2: GCGGCAGAACCGCTGATGTCCATAGCCAATACGCGATTGCTTGGACAACTGATCGGTAAATAGCAATGCAAACTGGCATATATTGGCTA
B3: binds (Mce3R [2]).

B4: Probe A* (dsDNA)
DNA 1: CTACAAGTGCTGGAGGTCAAATCCCGCATCAACATAGCCAATATATGCCAGTTTGCATTGCTATTTACCGATCAGTTGTCCAAGCAATCGCGTATTGGCTATGGACATCAGCGGTTCTGCCGC
DNA 2: GCGGCAGAACCGCTGATGTCCATAGCCAATACGCGATTGCTTGGACAACTGATCGGTAAATAGCAATGCAAACTGGCATATATTGGCTATGTTGATGCGGGATTTGACCTCCAGCACTTGTAG
Binder B4 has a Kd (Mce3R [1]) of 59 ± 10 nM.

B5: Probe A' (dsDNA)
DNA 1: CCAGTGCGACCTAACCAAGGACCTACAGATTCTGTCCGTGAGAGAATCGTGTTGGCCTCAGAAGACGGTCGCAAGTTCTCTTTATGACCTGCTAAACTTGAGCCTATATTAGTTATCGCACCT
DNA 2: AGGTGCGATAACTAATATAGGCTCAAGTTTAGCAGGTCATAAAGAGAACTTGCGACCGTCTTCTGAGGCCAACACGATTCTCTCACGGACAGAATCTGTAGGTCCTTGGTTAGGTCGCACTGG
B5: no binding (Mce3R [3]).

From PMC11667970, “Mycobacterium tuberculosis Mce3R TetR-like Repressor Forms an Asymmetric Four-Helix Bundle and Binds a Nonpalindrome Sequence†” (ACS Chemical Biology, 2024)
